Experimental data from patent US20250243286A1 (SIXPEAKS BIO, published 2025).
Like-named read-outs stand apart in the source and are kept apart here.

T1: human ActRIIB (human, UniProt Q13705 19-137, limits assumed)
T1 construct: antigen in MSD-SET; also called ACVR2B; ActR2B
T1 sequence: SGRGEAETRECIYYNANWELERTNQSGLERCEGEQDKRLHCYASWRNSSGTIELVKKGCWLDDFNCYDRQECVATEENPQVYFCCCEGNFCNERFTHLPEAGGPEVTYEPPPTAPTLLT


Tests used:
[1] = target: T2, ActRIIA and ActRIIB (on TGFB/SMAD SBE Reporter HEK293 cells) (human); assay: cell-based or functional assay
[2] = target: T2, ActRIIA and ActRIIB (on TGFB/SMAD SBE …)
[3] = target: T2, ActRIIA and ActRIIB (on TGFB/SMAD SBE …); remark: listed apart in the source
[4] = target: T2, ActRIIA and ActRIIB (on TGFB/SMAD SBE …); assay: cell-based or functional assay; remark: listed apart in the source
[5] = target: T2, ActRIIA and ActRIIB (on TGFB/SMAD SBE …); assay: cell-based or functional assay; remark: listed apart in the source
[6] = target: T2, ActRIIA and ActRIIB (on TGFB/SMAD SBE …); assay: cell-based or functional assay; remark: listed apart in the source
[7] = target: T2, ActRIIA and ActRIIB (on TGFB/SMAD SBE …); assay: cell-based or functional assay; remark: listed apart in the source
[8] = target: T3, human ActRIIA (human, UniProt P27037 20-135, limits assumed); assay: MSD-SET
T3 construct: antigen in MSD-SET; also called ACVR2A; ActR2A

[9] = target: T1, human ActRIIB; assay: MSD-SET
[10] = target: T3, human ActRIIA; assay: MSD-SET; remark: listed apart in the source
[11] = target: T1, human ActRIIB; assay: MSD-SET; remark: listed apart in the source
[12] = target: T3, human ActRIIA; assay: MSD-SET; remark: listed apart in the source
[13] = target: T3, human ActRIIA; assay: MSD-SET; remark: listed apart in the source
[14] = target: T3, human ActRIIA; assay: MSD-SET; remark: listed apart in the source
[15] = target: T3, human ActRIIA; assay: MSD-SET, preliminary
[16] = target: T1, human ActRIIB; assay: MSD-SET, preliminary

T3 sequence (P27037 20-135 limits assumed): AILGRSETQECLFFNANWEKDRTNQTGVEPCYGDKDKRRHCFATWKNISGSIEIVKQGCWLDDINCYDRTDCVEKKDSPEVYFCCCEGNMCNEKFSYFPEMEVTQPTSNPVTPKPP

| IC50, Myostatin SMAD RGA [1] | IC50 [nM] (assay not given) [1] | IC90, Activin SMAD RGA [1] | IC90, Myostatin SMAD RGA [1] | IC90 [nM] (assay not given) [1] | IC50 (read off the curve); Activin-stimulated SMAD reporter gene assay [2] | IC50 (read off the curve); Myostatin-stimulated SMAD reporter gene assay [3] | IC50 [nM] (assay not given) [4] | IC90 [nM] (assay not given) [4] | IC50, Activin SMAD RGA [6] | Kd [8] | Kd [9] | IC50, Activin SMAD RGA [1] | Kd [10] | Kd [11] | IC50, Myostatin SMAD RGA [6] | IC50 fold difference to bimagrumab (assay not given) [1] | IC90 fold difference to bimagrumab (assay not given) [1] | Fold Difference to bimagrumab [12] | Kd [12] | Binder | also measured |
| --- | --- | --- | --- | --- | --- | --- | --- | --- | --- | --- | --- | --- | --- | --- | --- | --- | --- | --- | --- | --- | --- |
| 0.56 nM | 0.517 nM | 9.38 nM | 13.5 nM | 8.07 nM | 0.3 nM | 0.4 nM | 0.294 nM | 6.57 nM | 0.5 nM |  |  |  |  |  |  |  |  |  |  | Bimagrumab (antibody, V domains shown) VH: QVQLVQSGAEVKKPGASVKVSCKASGYTFTSSYINWVRQAPGQGLEWMGTINPVSGSTSYAQKFQGRVTMTRDTSISTAYMELSRLRSDDTAVYYCARGGWFDYWGQGTLVTVSS VL: QSALTQPASVSGSPGQSITISCTGTSSDVGSYNYVNWYQQHPGKAPKLMIYGVSKRPSGVSNRFSGSKSGNTASLTISGLQAEDEADYYCGTFAGGSYYGVFGGGTKLTVL | IC50, myostatin inhibition (SMAD RGA) [1]: 0.292 nM; IC95, Activin SMAD RGA [1]: 37.9 nM; IC95, Myostatin SMAD RGA [1]: 55.2 nM; IC99, Activin SMAD RGA [1]: 829 nM; IC99, Myostatin SMAD RGA [1]: 2680 nM; IC50, Activin SMAD RGA [5]: 0.32 nM; IC95, Activin SMAD RGA [5]: 19.6 nM; IC99, Activin SMAD RGA [5]: 206 nM; IC50, Myostatin SMAD RGA [7]: 0.292 nM |
| 0.513 nM |  | 3.82 nM | 4.63 nM |  | 0.3 nM | 0.7 nM |  |  | 0.43 nM | 0.029 nM | 0.008 nM | 0.347 nM | 0.029 nM | 0.008 nM | 0.48 nM |  |  |  |  | Antibody Fasnetsküchla (antibody, V domains shown, full-length IgG) VH: QVQLVQSGAEVKKPGASVKVSCKASGYTFTSSYINWVRQAPGQGLEWMGTINAVSGSTSYAQKFQGRVTMTRDTSISTAYMELSRLRSDDTAVYYCARGGWFDYWGQGTLVTVSS VL: QSALTQPASVSGSPGQSITISCTGTSSDVGSANYVNWYQQHPGKAPKPMIYGVSRRPSGVSNRFSGSKSGNTASLTISGLQAEDEADYYCGTFAGGKYYGVFGGGTKLTVL |  |
|  | 0.0946 nM | 1.38 nM |  | 1.5 nM |  |  |  |  |  |  |  | 0.094 nM | 0.027 nM |  |  | 5.46 fold | 5.4 fold | 7.3 fold | 0.027 nM | Antibody Springerle (antibody, V domains shown, full-length IgG) VH: QVQLVQSGAEVKKPGASVKVSCKASGYTFTSSYINWVRQAPGQGLEWMGTINPVSGSTSYAQKFQGRVTMTRDTSISTAYMELSRLRSDDTAVYYCARGGWFDYWGQGTLVTVSS VL: QSALTQPASVSGSPGQSITISCTGTSSDVGSYNYVNWYQQHPGKAPKLMIYGVSKRESGVSNRFSGSKSGNTASLTISGLQAEDEADYYCGTFAGGSYRGVFGGGTKLTVL |  |
| 0.222 nM | 0.086 nM | 1.58 nM | 2.78 nM | 1.16 nM |  |  |  |  | 0.21 nM | 0.028 nM | 0.005 nM | 0.161 nM | 0.028 nM | 0.005 nM | 0.27 nM | 6.02 fold | 6.98 fold | 6.4 fold | 0.028 nM | Antibody Biiramooscht (antibody, V domains shown, full-length IgG) VH: QVQLVQSGAEVKKPGASVKVSCKASGYTFTSSYINWVRQAPGQGLEWMGTINPVSGSTSYAQKFQGRVTMTRDTSISTAYMELSRLRSDDTAVYYCARGGWFDYWGQGTLVTVSS VL: QSALTQPASVSGSPGQSITISCTGTSSDVGSYNYVNWYQQHPGKAPKLMIYGVSKRESGVSNRFSGSKSGNTASLTISGLQAEDEADYYCGTFAGGAYYGVFGGGTKLTVL |  |
| 0.0537 nM |  | 2.14 nM | 0.491 nM |  |  |  | 0.105 nM | 2.77 nM |  |  |  | 0.138 nM | 0.023 nM | 0.005 nM |  |  |  |  |  | Antibody Bäratatza (antibody, V domains shown, full-length IgG) VH: QVQLVQSGAEVKKPGASVKVSCKASGYTFTSSYINWVRQAPGQGLEWMGTINAVSGSTSYAQKFQGRVTMTRDTSISTAYMELSRLRSDDTAVYYCARSGWFDYWGQGTLVTVSS VL: QSALTQPASVSGSPGQSITISCTGTSSDVGSYNYVNWYQQHPGKAPKLMIYGVSKQQSGVSNRFSGSKSGNTASLTISGLQAEDEADYYCGTFAGGSYYGVFGGGTKLTVL | IC50 fold difference to bimagrumab (assay not given) [4]: 2.8 fold; IC90 fold difference to bimagrumab (assay not given) [4]: 2.4 fold; Fold Difference to bimagrumab [13]: 49.5 fold; Kd [13]: 0.023 nM |
|  |  |  |  |  |  |  |  |  |  |  |  |  |  |  |  |  |  |  |  | Bebballesgmias Fab (Fab, V domains shown, Fab) VH: QVQLVQSGAEVKKPGSSVKVSCKASGYKFTSSYINWVRQAPGQGLEWMGTINPVSGSTSYAQKFQGRVTITADTSTSTAYMELSSLRSEDTAVYYCARGGWFDYWGQGTLVTVSS VL: QSALTQPRSVSGSPGQSVTISCTGTSSDVGSYNYVNWYQQHPGKAPKLMIYGVSKRPRGVPDRFSGSKSGNTASLTISGLQAEDEADYYCGTFAGGSYYGVFGGGTKLTVL | Kd [14]: 0.285 nM; Kd [15]: 0.285 nM; Kd [16]: 0.0251 nM |
